Tests used:
[1] = molecular target: human small ubiquitin-like modifier 1 (human) (UniProt P63165); test: SPR (monobody on the chip via His-tag, target flowed); estimated Kd [Continued]
[2] = molecular target: human small ubiquitin-like modifier 1 (human) (UniProt P63165); test: SPR (Biacore 2000), monobody immobilised via His-tag on NTA surface, hSUMO1 flowed over it
[3] = molecular target: human small ubiquitin-like modifier 1 (human) (UniProt P63165); test: ratio of the apparent affinity for hSUMO1 to that for ySUMO in the titration phage ELISA of FIGS. 25A and 26A; group Moderate Specificity (10-100)
[4] = molecular target: human small ubiquitin-like modifier 1 (human) (UniProt P63165); test: ratio of the apparent affinity for hSUMO1 to that for ySUMO in the titration phage ELISA of FIGS. 25A and 26A; group High Specificity (>100)
[5] = molecular target: human small ubiquitin-like modifier 1 (human) (UniProt P63165); test: ratio of the apparent affinity for hSUMO1 to that for ySUMO in the titration phage ELISA of FIGS. 25A and 26A; group Low Specificity (0-10)
[6] = molecular target: human small ubiquitin-like modifier 1 (human) (UniProt P63165); test: SPR

B1: SEQ ID NO 87 (designed binder)
chain: VSSVPTKLEVVAATPTSLLISWDASSSSVSHYHITYGETGGNSPVQEFTVPGSSSTATISGLSPGVDYTITVYAFYSDDDLYFAFSPSSINYRT
Kd [1]: 652 nM

B2: SEQ ID NO 88 (designed binder)
chain: VSSVPTKLEVVAATPTSLLISWDASSSSVSHYGITYGETGGNSPVQEFTVPGSSSTATISGLSPGVDYTITVYAYHSYDDIYYALSPSSINYRT
Kd [1]: 290 nM

B3: hS1MB-3 (designed binder)
chain: VSSVPTKLEVVAATPTSLLISWDASSSSVSHYAITYGETGGNSPVQEFTVPGSSSTATISGLSPGVDYTITVYAYHSYDDIFLADSPSSINYRT
Kd [2]: 519 nM | Specificity Factor [3]: 12.3

B4: SEQ ID NO 89 (designed binder)
chain: VSSVPTKLEVVAATPTSLLISWDASSSSVSHYAITYGETGGNSPVQEFTVPGSSSTATISGLSPGVDYTITVYAYHSYDDIFLADSPSSINYRT
Kd [1]: 519 nM

B5: hS1MB-7 (designed binder)
chain: VSSVPTKLEVVAATPTSLLISWDASSSSVSYYEITYGETGGNSPVQEFTVPGSSSTATISGLSPGVDYTITVIAFYSHDDIYISDSPSSINYRT
Kd [2]: 2500 nM | Specificity Factor [4]: > 100

B6: SEQ ID NO 90 (designed binder)
chain: VSSVPTKLEVVAATPTSLLISWDASSSSVSHYEITYGETGGNSPVQEFTVPGSSSTATISGLSPGVDYTITVYAYYSHEDIFYAVSPSSINYRT
Kd [1]: 145 nM

B7: SEQ ID NO 91 (designed binder)
chain: VSSVPTKLEVVAATPTSLLISWDASSSSVSHYEITYGETGGNSPVQEFTVPGSSSTATISGLSPGVDYTITVAAYHSYHDIFYAVSPSSINYRT
Kd [1]: 284 nM

B8: SEQ ID NO 92 (designed binder)
chain: VSSVPTKLEVVAATPTSLLISWDASSSSVSHYEITYGETGGNSPVQEFTVPGSSSTATISGLSPGVDYTITVTAYDSYYDIYIAYSPSSINYRT
Kd [1]: 2800 nM

B9: SEQ ID NO 93 (designed binder)
chain: VSSVPTKLEVVAATPTSLLISWDASSSSVSYYEITYGETGGNSPVQEFTVPGSSSTATISGLSPGVDYTITVIAFYSHDDIYISDSPSSINYRT
Kd [1]: 2500 nM

B10: SEQ ID NO 94 (designed binder)
chain: VSSVPTKLEVVAATPTSLLISWDASSSSVSHYAITYGETGGNSPVQEFTVPGSSSTATISGLSPGVDYTITVYAYYSYDDLYVSDSPSSINYRT
Kd [1]: 3600 nM

B11: SEQ ID NO 95 (designed binder)
chain: VSSVPTKLEVVAATPTSLLISWDASSSSVSHYAITYGETGGNSPVQEFTVPGSSSTATISGLSPGVDYTITVFAYYSYDDIYYAYSPSSINYRT
Kd [1]: 738 nM

B12: hS1MB-22 (designed binder)
chain: VSSVPTKLEVVAATPTSLLISWDASSSSVSHYAITYGETGGNSPVQEFTVPGSSSTATISGLSPGVDYTITVYAFYSYYDIFYSDSPSSINYRT
Specificity Factor [5]: 0.6

B13: hS1MB-21 (designed binder)
chain: VSSVPTKLEVVAATPTSLLISWDASSSSVSHYGITYGETGGNSPVQEFTVPGSSSTATISGLSPGVDYTITVYAYYSYHDIFYALSPSSINYRT
Specificity Factor [5]: 0.7

B14: hS1MB-13 (designed binder)
chain: VSSVPTKLEVVAATPTSLLISWDASSSSVSYYAITYGETGGNSPVQEFTVPGSSSTATISGLSPGVDYTITVYAYHSYDDIYFAFSPSSINYRT
Specificity Factor [5]: 1.4

B15: hS1MB-14 (designed binder)
chain: VSSVPTKLEVVAATPTSLLISWDASSSSVSHYHITYGETGGNSPVQEFTVPGSSSTATISGLSPGVDYTITVYAYYSYNDIFFADSPSSINYRT
Specificity Factor [5]: 2.6

B16: hS1MB-15 (designed binder)
chain: VSSVPTKLEVVAATPTSLLISWDASSSSVSYYDITYGETGGNSPVQEFTVPGSSSTATISGLSPGVDYTITVYAYYSYDDIYFADSPSSINYRT
Specificity Factor [5]: 2.9

B17: hS1MB-12 (designed binder)
chain: VSSVPTKLEVVAATPTSLLISWDASSSSVSYYEITYGETGGNSPVQEFTVPGSSSTATISGLSPGVDYTITVFAYHSDDDLYYAFSPSSINYRT
Specificity Factor [5]: 4.4

B18: hS1MB-19 (designed binder)
chain: VSSVPTKLEVVAATPTSLLISWDASSSSVSHYGITYGETGGNSPVQEFTVPGSSSTATISGLSPGVDYTITVYAYYSYDDIFVAVSPSSINYRT
Specificity Factor [5]: 8

B19: SEQ ID NO 96 (designed binder)
chain: VSSVPTKLEVVAATPTSLLISWDASSSSVSHYDITYGETGGNSPVQEFTVPGSSSTATISGLSPGVDYTITVHAYYSYDDIYVAISPSSINYRT
Kd [1]: 2200 nM

B20: hS1MB-11 (designed binder)
chain: VSSVPTKLEVVAATPTSLLISWDASSSSVSNYAITYGETGGNSPVQEFTVPGSSSTATISGLSPGVDYTITVYAYYSYDDIFVADSPSSINYRT
Specificity Factor [3]: 13.1

B21: hS1MB-23 (designed binder)
chain: VSSVPTKLEVVAATPTSLLISWDASSSSVSHYEITYGETGGNSPVQEFTVPGSSSTATISGLSPGVDYTITVYAYYSHDDIFYAFSPSSINYRT
Specificity Factor [3]: 52.5

B22: hS1MB-16 (designed binder)
chain: VSSVPTKLEVVAATPTSLLISWDASSSSVSHYDITYGETGGNSPVQEFTVPGSSSTATISGLSPGVDYTITVYAYNSHDDIFIAYSPSSINYRT
Specificity Factor [4]: > 100

B23: hS1MB-17 (designed binder)
chain: VSSVPTKLEVVAATPTSLLISWDASSSSVSYYEITYGETGGNSPVQEFTVPGSSSTATISGLSPGVDYTITVSAYNSYDDIYYAVSPSSINYRT
Specificity Factor [4]: > 100

B24: hS1MB-18 (designed binder)
chain: VSSVPTKLEVVAATPTSLLISWDASSSSVSYYEITYGETGGNSPVQEFTVPGSSSTATISGLSPGVDYTITVFAYDSVEDIYVSYSPSSINYRT
Specificity Factor [4]: > 100

B25: hS1MB-20 (designed binder)
chain: VSSVPTKLEVVAATPTSLLISWDASSSSVSHYSITYGETGGNSPVQEFTVPGSSSTATISGLSPGVDYTITVYAYDSIEDIYIADSPSSINYRT
Specificity Factor [4]: > 100

B26: ySMB-1 (designed binder)
chain: VSSVPTKLEVVAATPTSLLISWDASSSSVSYYRITYGETGGNSPVQEFTVPGSSSTATISGLSPGVDYTITVYAYYSYYDLYYSYSPSSINYRT
Kd [6]: 54000 nM | fold discrimination in affinity (ySUMO over hSUMOs) [6]: > 600 fold
